Test results taken from US20220041658A1 (PROTAGONIST THERAPEUTICS, published 2022).
Starred links: 1 amine or outer side, 2 acyl side, 3 side chain; linkers in the order of their positions; H or OH if unused. Positions of bridges follow the written chain, without caps; N, C: chain ends. Non-standard residues stand in square brackets, D forms with d. Trp(7-Et) = 7-ethyl-tryptophan, CCc1cccc2c(C[C@H](N[*:1])C(=O)[*:2])c[nH]c12; Trp(7-Me) = Cc1cccc2c(C[C@H](N)C(=O)O)c[nH]c12; 2Nal = N[C@@H](Cc1ccc2ccccc2c1)C(=O)O; AEF = NCCOc1ccc(C[C@H](N)C(=O)O)cc1; Cit = NC(=O)NCCC[C@H](N)C(=O)O; αMeL = CC(C)C[C@](C)(N)C(=O)O; Pen = CC(C)(S)[C@H](N)C(=O)O; αMeK = C[C@](N)(CCCCN)C(=O)O; Aib = CC(C)(N)C(=O)O; βAla = NCCC(=O)O

T1: interleukin-23 receptor (IL-23R) (human, UniProt Q5VWK5 24-629)
T1 sequence (looked up): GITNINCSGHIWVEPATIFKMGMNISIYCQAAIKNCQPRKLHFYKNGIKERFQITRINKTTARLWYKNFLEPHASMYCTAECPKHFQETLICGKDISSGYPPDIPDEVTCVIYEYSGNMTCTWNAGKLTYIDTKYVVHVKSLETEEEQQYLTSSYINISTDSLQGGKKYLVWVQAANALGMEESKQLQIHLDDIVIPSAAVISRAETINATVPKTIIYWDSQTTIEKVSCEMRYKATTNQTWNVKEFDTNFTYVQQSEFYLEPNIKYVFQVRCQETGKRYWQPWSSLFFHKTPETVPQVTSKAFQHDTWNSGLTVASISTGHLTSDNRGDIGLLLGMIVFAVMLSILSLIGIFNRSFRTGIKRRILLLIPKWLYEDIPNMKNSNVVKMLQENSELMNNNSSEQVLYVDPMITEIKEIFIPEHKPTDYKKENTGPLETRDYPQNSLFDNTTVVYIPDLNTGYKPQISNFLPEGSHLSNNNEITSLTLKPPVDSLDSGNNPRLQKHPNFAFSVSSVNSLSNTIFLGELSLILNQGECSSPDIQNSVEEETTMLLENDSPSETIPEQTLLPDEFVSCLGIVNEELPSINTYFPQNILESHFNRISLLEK

B1: Peptide of SEQ ID NO: 202 (peptide)
peptide: XNTXQXXXXKNX
modifications: Ac-[Pen]-NT-[W(7-Me)]-Q-[Pen]-Phe[4-(2-aminoethoxy)]-[2-Nal]-[a-MeLys]-[Lys(Ac)]-N-[bA]-NH2; Pen-Pen disulfide
B2: Peptide of SEQ ID NO: 264 (peptide)
peptide: Ac-[Pen]NT[Trp(7-Me)][Cit][Pen][AEF][2Nal][αMeK]K(Ac)N[Aib]-NH2
modifications: disulfide 1-6
SMILES: CC(=O)NCCCC[C@H](NC(=O)[C@](C)(CCCCN)NC(=O)[C@H](Cc1ccc2ccccc2c1)NC(=O)[C@H](Cc1ccc(OCCN)cc1)NC(=O)[C@H]1NC(=O)[C@H](CCCNC(N)=O)NC(=O)[C@H](Cc2c[nH]c3c(C)cccc23)NC(=O)[C@H]([C@@H](C)O)NC(=O)[C@H](CC(N)=O)NC(=O)[C@@H](NC(C)=O)C(C)(C)SSC1(C)C)C(=O)N[C@@H](CC(N)=O)C(=O)NC(C)(C)C(N)=O
B3: Peptide of SEQ ID NO: 361 (peptide)
peptide: XNTXKXXXXXNL
modifications: Ac-[Pen]-N-T-[W(7-Me)]-[Lys(Ac)]-[Pen]-Phe[4-(2-aminoethoxy)]-[2-Nal]-[a-MeLys]-[Lys(valeric)]-N-[(D)Leu]-NH2; Pen-Pen disulfide
B4: Peptide of SEQ ID NO: 239 (peptide)
peptide: XKTXQXXXXKNX
modifications: Ac-[Pen]-[Lys(Ac)]-T-[W(7-Me)]-Q-[Pen]-Phe[4-(2-aminoethoxy)]-[2-Nal]-[a-MeLys]-[Lys(Ac)]-N-[bA]-NH2; Pen-Pen disulfide
B5: Peptide of SEQ ID NO: 207 (peptide)
peptide: XNTXQXXXXKAX
modifications: Ac-[Pen]-NT-[W(7-Me)]-Q-[Pen]-Phe[4-(2-aminoethoxy)]-[2-Nal]-[a-MeLeu]-[Lys(Ac)]-A-[bA]-NH2; Pen-Pen disulfide
B6: Peptide of SEQ ID NO: 251 (peptide)
peptide: XNTXKXXXXKNV
modifications: Ac-[Pen]-NT-[W(7-Me)]-[Lys(Ac)]-[Pen]-Phe[4-(2-aminoethoxy)]-[2-Nal]-[a-MeLys]-[Lys(Ac)]-N-[(D)Val]-NH2; Pen-Pen disulfide
B7: Peptide of SEQ ID NO: 218 (peptide)
peptide: XNTXQXXXXKTX
modifications: Ac-[Pen]-NT-[W(7-Me)]-Q-[Pen]-Phe[4-(2-aminoethoxy)]-[2-Nal]-[a-MeLeu]-[Lys(Ac)]-[(D)Thr]-[bA]-NH2; Pen-Pen disulfide
B8: Peptide of SEQ ID NO: 238 (peptide)
peptide: Ac-[Pen][Cit]T[Trp(7-Me)]Q[Pen][AEF][2Nal][αMeK]K(Ac)N[βAla]-NH2
modifications: disulfide 1-6
SMILES: CC(=O)NCCCC[C@H](NC(=O)[C@](C)(CCCCN)NC(=O)[C@H](Cc1ccc2ccccc2c1)NC(=O)[C@H](Cc1ccc(OCCN)cc1)NC(=O)[C@H]1NC(=O)[C@H](CCC(N)=O)NC(=O)[C@H](Cc2c[nH]c3c(C)cccc23)NC(=O)[C@H]([C@@H](C)O)NC(=O)[C@H](CCCNC(N)=O)NC(=O)[C@@H](NC(C)=O)C(C)(C)SSC1(C)C)C(=O)N[C@@H](CC(N)=O)C(=O)NCCC(N)=O
B9: Peptide of SEQ ID NO: 258 (peptide)
peptide: XNTXKXXXXKNF
modifications: Ac-[Pen]-NT-[W(7-Me)]-[Lys(Ac)]-[Pen]-Phe[4-(2-aminoethoxy)]-[2-Nal]-[a-MeLys]-[Lys(Ac)]-N-[(D)Phe]-NH2; Pen-Pen disulfide
B10: Peptide of SEQ ID NO: 217 (peptide)
peptide: XNTXQXXXXKTX
modifications: Ac-[Pen]-NT-[W(7-Me)]-Q-[Pen]-Phe[4-(2-aminoethoxy)]-[2-Nal]-[a-MeLeu]-[Lys(Ac)]-T-[bA]-NH2; Pen-Pen disulfide
B11: Peptide of SEQ ID NO: 261 (peptide)
peptide: Ac-[Pen]NT[Trp(7-Me)][Cit][Pen][AEF][2Nal][αMeK]K(Ac)N[dS]-NH2
modifications: disulfide 1-6
SMILES: CC(=O)NCCCC[C@H](NC(=O)[C@](C)(CCCCN)NC(=O)[C@H](Cc1ccc2ccccc2c1)NC(=O)[C@H](Cc1ccc(OCCN)cc1)NC(=O)[C@H]1NC(=O)[C@H](CCCNC(N)=O)NC(=O)[C@H](Cc2c[nH]c3c(C)cccc23)NC(=O)[C@H]([C@@H](C)O)NC(=O)[C@H](CC(N)=O)NC(=O)[C@@H](NC(C)=O)C(C)(C)SSC1(C)C)C(=O)N[C@@H](CC(N)=O)C(=O)N[C@H](CO)C(N)=O
B12: Peptide of SEQ ID NO: 259 (peptide)
peptide: Ac-[Pen]NT[Trp(7-Me)][Cit][Pen][AEF][2Nal][αMeK]K(Ac)N[dY]-NH2
modifications: disulfide 1-6
SMILES: CC(=O)NCCCC[C@H](NC(=O)[C@](C)(CCCCN)NC(=O)[C@H](Cc1ccc2ccccc2c1)NC(=O)[C@H](Cc1ccc(OCCN)cc1)NC(=O)[C@H]1NC(=O)[C@H](CCCNC(N)=O)NC(=O)[C@H](Cc2c[nH]c3c(C)cccc23)NC(=O)[C@H]([C@@H](C)O)NC(=O)[C@H](CC(N)=O)NC(=O)[C@@H](NC(C)=O)C(C)(C)SSC1(C)C)C(=O)N[C@@H](CC(N)=O)C(=O)N[C@H](Cc1ccc(O)cc1)C(N)=O
B13: Peptide of SEQ ID NO: 284 (peptide)
peptide: Ac-[Pen]NT[Trp(7-Et)]K(Ac)[Pen][AEF][2Nal][αMeK]K(Ac)N[dL]-NH2
modifications: disulfide 1-6
SMILES: CCc1cccc2c(C[C@@H]3NC(=O)[C@H]([C@@H](C)O)NC(=O)[C@H](CC(N)=O)NC(=O)[C@@H](NC(C)=O)C(C)(C)SSC(C)(C)[C@@H](C(=O)N[C@@H](Cc4ccc(OCCN)cc4)C(=O)N[C@@H](Cc4ccc5ccccc5c4)C(=O)N[C@@](C)(CCCCN)C(=O)N[C@@H](CCCCNC(C)=O)C(=O)N[C@@H](CC(N)=O)C(=O)N[C@H](CC(C)C)C(N)=O)NC(=O)[C@H](CCCCNC(C)=O)NC3=O)c[nH]c12
B14: Peptide of SEQ ID NO: 245 (peptide)
peptide: XNTXKXXXXKNL
modifications: Ac-[Pen]-NT-[W(7-Me)]-[Lys(Ac)]-[Pen]-Phe[4-(2-aminoethoxy)]-[2-Nal]-[a-MeLys]-[Lys(Ac)]-N-[(D)Leu]-NH2; Pen-Pen disulfide
B15: Peptide of SEQ ID NO: 216 (peptide)
peptide: XNTXQXXXXKIX
modifications: Ac-[Pen]-NT-[W(7-Me)]-Q-[Pen]-Phe[4-(2-aminoethoxy)]-[2-Nal]-[a-MeLeu]-[Lys(Ac)]-I-[bA]-NH2; Pen-Pen disulfide
B16: Peptide of SEQ ID NO: 225 (peptide)
peptide: XNTXQXXXXKXX
modifications: Ac-[Pen]-NT-[W(7-Me)]-Q-[Pen]-Phe[4-(2-aminoethoxy)]-[2-Nal]-[a-MeLeu]-[Lys(Ac)]-[a-MeLeu]-[bA]-NH2; Pen-Pen disulfide
B17: Peptide of SEQ ID NO: 223 (peptide)
peptide: XNTXQXXXXKXX
modifications: Ac-[Pen]-NT-[W(7-Me)]-Q-[Pen]-Phe[4-(2-aminoethoxy)]-[2-Nal]-[a-MeLeu]-[Lys(Ac)]-[N-MeAla]-[bA]-NH2; Pen-Pen disulfide
B18: Peptide of SEQ ID NO: 208 (peptide)
peptide: XNTXQXXXXKLX
modifications: Ac-[Pen]-NT-[W(7-Me)]-Q-[Pen]-Phe[4-(2-aminoethoxy)]-[2-Nal]-[a-MeLeu]-[Lys(Ac)]-L-[bA]-NH2; Pen-Pen disulfide

Each binder was assayed against T1, interleukin-23 receptor (IL-23R) (assay: cell-based or functional assay).

| pStat3 HTRF IC50 | Binder |
| --- | --- |
| 1.1 nM | B1 |
| 0.702 nM | Ac-[Pen]NT[Trp(7-Me)][Cit][Pen][AEF][2Nal][αMeL]K(Ac)N[βAla]-NH2 (disulfide 1-6) [Peptide of SEQ ID NO: 227] |
| 0.596 nM | B2 |
| 0.596 nM | B3 |
| 1.66 nM | B4 |
| 1.46 nM | B5 |
| 0.986 nM | B6 |
| 11 nM | B7 |
| 1.06 nM | B8 |
| 0.92 nM | B9 |
| 1.61 nM | B10 |
| 0.522 nM | B11 |
| 0.607 nM | B12 |
| 0.34 nM | B13 |
| 0.51 nM | B14 |
| 13.5 nM | B15 |
| 56.7 nM | B16 |
| 134 nM | B17 |
| 5.39 nM | B18 |

Biological target: T1, interleukin-23 receptor (IL-23R)
Test: cell-based or functional assay
Remark: another data set of the same source

| NK Cell Assay IC50 | Binder |
| --- | --- |
| 3.49 nM | B1 |
| 2.95 nM | Ac-[Pen]NT[Trp(7-Me)][Cit][Pen][AEF][2Nal][αMeL]K(Ac)N[βAla]-NH2 (disulfide 1-6) [Peptide of SEQ ID NO: 227] |
| 5.15 nM | B2 |
| 1.47 nM | B3 |
| 4.1 nM | B4 |
| 8.4 nM | B5 |
| 8.19 nM | B6 |
| 50.2 nM | B7 |
| 2.99 nM | B8 |
| 9.7 nM | B9 |
| 13.3 nM | B10 |
| 4.87 nM | B11 |
| 7.6 nM | B12 |
| 3.16 nM | B13 |
| 2.7 nM | B14 |
| > 500 nM | B15 |
| 114 nM | B16 |
| 8.3 nM | B17 |
| 7.8 nM | B18 |
